To fix the notation:
B1: TPR t1 (parent)
chain: GACCAAUCUGCCCUCAGAGCUCGAGAACAUCUUCGGAUGCAGAGGAGGCAGGCUUCGGUGGCGCGAUAGCGCCAACGUCCUCAACCUCCAAUGCAUCCCACCACAUGAUGAUGCCUGAAGAGCCUUGGUUUUUUG

The data set covers variants of B1. The data set is described as follows: polymerase ribozyme fitness, log enrichment relative to wild type (log ratio); higher = more active; in vitro selection for triplet polymerase activity. The method in brief:
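To select mutant libraries of each subunit of a heterodimeric triplet polymerase ribozyme, built by PCR and transcribed, each was annealed with a biotinylated primer, partner subunit and triplets, then incubated frozen at −7 °C. Extended constructs were gel-excised, captured on streptavidin beads and amplified by RT-PCR, in one round carried out in triplicate. Illumina sequencing of input and output libraries kept genotypes with ≥10 input reads and ≥1 read per output. Fitness is the base-2 logarithm of genotype enrichment relative to wild-type enrichment, from inverse-variance-weighted replicate averages.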
For U9G U38G U55C, the “polymerase ribozyme fitness (log ratio)” value is -0.21. For G61A G65A, the “polymerase ribozyme fitness (log ratio)” value was -3.94.

For G61C C88A, the “polymerase ribozyme fitness (log ratio)” value is -2.91. For C8A G69C, the “polymerase ribozyme fitness (log ratio)” value is -1.13. With A18U C34U G61C A74C A100C G107U G110C, the “polymerase ribozyme fitness (log ratio)” value was -7.86.

For the variant G44A C89A, the “polymerase ribozyme fitness (log ratio)” value was -1.04. For the variant A43C G77A G127C, the “polymerase ribozyme fitness (log ratio)” value was -3.5. For G61A U92G G113U the value was -4.27. Consider A41U G61A G127C, for which the “polymerase ribozyme fitness (log ratio)” value was -2.63. For C34A A46G U54G the value was -2.69. C31G G36A G52A C56U C115G: the “polymerase ribozyme fitness (log ratio)” value is -7.46. Then U7A C70U, with -0.0171; and C31A U54C U96A A111G, with -5.95; and C12U A26G G45A A84U U132C, with -3.75. For A5C A118G the value was -0.499. A5G C64G G69A A83U: the “polymerase ribozyme fitness (log ratio)” value was -4.33. With G44C U55A C70G U126G, the “polymerase ribozyme fitness (log ratio)” value was -5.73. Regarding G61A A74C C79A U131G, the “polymerase ribozyme fitness (log ratio)” value was -1.98. For A2U C72G C101G C124A the value was -2.28; for G45U A66C, -2.87; for A18U C124A U126A, -1.36. For A26U C62G the value was -4.89; for G36A G127U U133G, -3.26. For U38A G71U C80U A95G C124A the value was -0.159. In the case of C40G G69A, the “polymerase ribozyme fitness (log ratio)” value was -3.43. For G42A C64G C114G G117C the value was -7.17; for U9A U33G G36U U38G C53G C115G, -7.69; for U7G C11G C124U, 1.49. Then A24U C34A U59A G63U C80A G113A, with -7.46; and G71A U112C, with 0.03; and G47A U78G U81A C86U U133G, with -1.35.

Turning to U32A C40U G63A A83G G120C, the “polymerase ribozyme fitness (log ratio)” value is -7.22. For the variant G17C C85G, the “polymerase ribozyme fitness (log ratio)” value is -6.06. Consider U7C C8G C12U G19C G63A A66U C115A G128C, for which the “polymerase ribozyme fitness (log ratio)” value was -4.6.

C13G C40G: the “polymerase ribozyme fitness (log ratio)” value is -0.654. For C53A G60A the value was -0.364. Then G23A G120A, with -4.02.

Consider A50U C72U U106C, for which the “polymerase ribozyme fitness (log ratio)” value was -0.84. In the case of C94U G110A, the “polymerase ribozyme fitness (log ratio)” value was -1.18. For G52A G117C the value was -2.77; for C73A A118G, 0.164; for C8U C70G U78C G113A A121G, -3.57.

Consider C13U G42U C56U C73U C114G C123A, for which the “polymerase ribozyme fitness (log ratio)” value was -2.2. For C34A G117U the value was -6.2; for G71C C88G, -1.88; for U14G U55C C70A, -3.8. As for C28A A75G G120U U129G, the “polymerase ribozyme fitness (log ratio)” value is -6.26. For G45A U78C C86A G120U the value was -2.19; for G52C U59C G120U U125C, -0.0154. Then C49U G128U, with -2.9; and U54A C115G, with -2.09. Then C8U G71A C88U, with -0.224. With C70G C97U U116A G117A, the “polymerase ribozyme fitness (log ratio)” value is -5.25.

Regarding G47A U55A G60U A90U U92A, the “polymerase ribozyme fitness (log ratio)” value is -2.67. For U38G C49U U125G the value was -2.98; for C3G G19A C20G C88G U112G C115U, -5.61. Take G61A A68G: the “polymerase ribozyme fitness (log ratio)” value is -2.69. With C82A C115A, the “polymerase ribozyme fitness (log ratio)” value was -1.19. For G10A C73U A84U G110U the value was -2.38; for G71C C89U U126C, -2.71; for A6U G52U C53G G128C, -3.38. Then C28G, with -2.31; and C88A C104A A121U U130C, with 0.158; and G52U A83U C98U, with -2.49.

Turning to C3U C64U G71U C85G A121U, the “polymerase ribozyme fitness (log ratio)” value is -4.22.

As for G61A G93A A105G G122A, the “polymerase ribozyme fitness (log ratio)” value is -5.32.

For the variant U32C C99U, the “polymerase ribozyme fitness (log ratio)” value is -2.13. Then A5C U106A, with -0.572; and G48C C49A, with -2.13. As to A5G C15U G93U G117U, the “polymerase ribozyme fitness (log ratio)” value is -1.5.

Consider C76A C123G, for which the “polymerase ribozyme fitness (log ratio)” value was -0.164. Then A66U U78C, with -0.769; and U7A C13G U32C U38G G63C, with -2.61; and G60C U130C, with -1.11. Then A41G G45U C56G, with -0.725.

Consider A41G G61U G120C, for which the “polymerase ribozyme fitness (log ratio)” value came to 0.573.

As for C22U A26G G52C A105C C124U, the “polymerase ribozyme fitness (log ratio)” value is -4.45.

As for C64U A75U G93A, the “polymerase ribozyme fitness (log ratio)” value is -0.503. C40U C56G: the “polymerase ribozyme fitness (log ratio)” value is -1.16.

As for G42A A111U, the “polymerase ribozyme fitness (log ratio)” value was -5.4. For A6G G45C C94U G120A U126G the value was -5.4.

As to G35U G69U, the “polymerase ribozyme fitness (log ratio)” value is -0.908. Then C13A G42C A66C C99U C101U C114U G127U, with -6.24; and G10A G60C C124A, with 1.12.

Take G10C C76G: the “polymerase ribozyme fitness (log ratio)” value was -1.17. For C34G U54G G69U the value was -5.25. C13A C89A: the “polymerase ribozyme fitness (log ratio)” value was -3.37.

With G10U G61A C123G, the “polymerase ribozyme fitness (log ratio)” value was 1.03. A6U U30C G93U G120U: the “polymerase ribozyme fitness (log ratio)” value was -3.6.

Regarding A6G G63U C124A G128U, the “polymerase ribozyme fitness (log ratio)” value was -1.92.

Consider C40U G51U, for which the “polymerase ribozyme fitness (log ratio)” value is -3.7. For the variant A74U G128U U130C, the “polymerase ribozyme fitness (log ratio)” value is -0.708. For A41U G45A C88A C115A U131A the value was -3.64; for C22G C40G G65U G69A C99A C101A C123U, -6.38. For U33G C104U the value was -5.5; for U14C U54G, -1.76. Regarding C12U C124A, the “polymerase ribozyme fitness (log ratio)” value is 1.8. For C85G C114G the value was -3.82.

Regarding C8U U59G A75U U81G C124U, the “polymerase ribozyme fitness (log ratio)” value was -2.31. For G44U C72U the value was -1.36. For the variant U9A U32A A37U A46C C56A A111G, the “polymerase ribozyme fitness (log ratio)” value was -4.29. Then C22U C62A U106G A108C A121G G122U, with -7.34. Take G71C G93C G127A: the “polymerase ribozyme fitness (log ratio)” value is -2.95. Consider A91C U125A, for which the “polymerase ribozyme fitness (log ratio)” value was -2.71. As to G61A U106C G122A, the “polymerase ribozyme fitness (log ratio)” value was -0.878. For C94A U109A, the “polymerase ribozyme fitness (log ratio)” value is -5.96. For G36U G60C A84C, the “polymerase ribozyme fitness (log ratio)” value is -1.87. Then G19A G61A U132C, with -2.94; and A2C C3A U9A C20U G63C G120U, with -1.07. Then U9A G44C C80A U96C, with -3.87; and A83U C85A U112A C114A, with -3.32. For A37C C62G A83U C88U the value was -2.61; for G48A C64U A111G, -0.284; for C49U C82A U87C U96A, -1.66. As for C34U G122A, the “polymerase ribozyme fitness (log ratio)” value is -4.6. With C3U G45A A105U, the “polymerase ribozyme fitness (log ratio)” value is -3.3.

As to C72G C123A, the “polymerase ribozyme fitness (log ratio)” value is -0.175.

Take C40U G117A: the “polymerase ribozyme fitness (log ratio)” value is -1.87. For G10U C31G G39C C64U G110A G113U the value was -6.42; for A46U G48A C104U, -1.94.

With C11G U125A, the “polymerase ribozyme fitness (log ratio)” value was -0.25. For C8U U59G U96A G110U the value was -2.31; for C70U U81A C82G, -2.96. For U33G G93A A100U C114U, the “polymerase ribozyme fitness (log ratio)” value is -7.04. With C22A G45A C53G C88G A111U, the “polymerase ribozyme fitness (log ratio)” value is -3.89. With A37U A66C A75U G120C, the “polymerase ribozyme fitness (log ratio)” value is -1.07. Turning to C49A C72U C97G G128C, the “polymerase ribozyme fitness (log ratio)” value was -6.74.

Take G44U G113C U130A: the “polymerase ribozyme fitness (log ratio)” value was -2.45.

Take C49U A103C U112C: the “polymerase ribozyme fitness (log ratio)” value was -3.22. Then C12A C22A A26C G120U, with -4.36.

For the variant G110U G135U, the “polymerase ribozyme fitness (log ratio)” value was -3.12. Then U87A A121C, with 1.23; and G39U G60A, with 0.0157. Then A84U C88A, with -1.4; and U67C U131A, with -4.05; and C34A C56G G117A, with -5.64. For G51C C53U C56U C89G U112G the value was -5.96; for G110C G122U, -4.38. As for A46U C101A U130G, the “polymerase ribozyme fitness (log ratio)” value was -2.84. For A5U U59A U92A U129G, the “polymerase ribozyme fitness (log ratio)” value is -3.92.

A43G U112C G122U: the “polymerase ribozyme fitness (log ratio)” value was -0.183.

Consider G113A U130A, for which the “polymerase ribozyme fitness (log ratio)” value was -2.33.

As to C62U C73U, the “polymerase ribozyme fitness (log ratio)” value is -0.0195. Turning to U7C C22A C82A C89U, the “polymerase ribozyme fitness (log ratio)” value is -4.93. Then C8G A74C, with 0.88; and C12A G57A G69C U106C, with -2.99. For A29G U87C G113U A121C the value was -3.46; for A50C G117U, -2.95. For A91U G128A the value was -3.34. Regarding G17A G36U U112G, the “polymerase ribozyme fitness (log ratio)” value was -4.13. For C53U U132A the value was -0.215. Then C15U U78G C86U G113C, with -5.8; and U54G A91C G113U A121C, with -2.85; and A6U A16U A46C C56G, with -2.72.

Turning to U14C A46U A74G, the “polymerase ribozyme fitness (log ratio)” value is -1.32. Consider C20A A37U A83C, for which the “polymerase ribozyme fitness (log ratio)” value was -3.38. For the variant C8A G58C U112C A121G, the “polymerase ribozyme fitness (log ratio)” value is 1.27.

Consider G61U C114G, for which the “polymerase ribozyme fitness (log ratio)” value was -1.85.

With U55A A84C, the “polymerase ribozyme fitness (log ratio)” value amounted to 0.0901. For C13U G19A A41U G44U G69U the value was -2.81; for A84U C94A C115A, -1.46; for G25C C53G, -6.8.

A16C G71C U126C U131A: the “polymerase ribozyme fitness (log ratio)” value is -4.45. Then C53U G69U, with 0.587. On to C34U C102U C124A, for which the “polymerase ribozyme fitness (log ratio)” value was -0.815. For G23C U59C C98U C101A U112C the value was -7.02; for C80G, -5.78.

(Values after the RNAGym collection of RNA variant scans (doi:10.1073/pnas.2313332121).)
